Source: patent US20220010021A1 (Sanofi, published 2022)

Biological target: human FGFR1c + KLB receptor complex on HEK293 iLite FGF21 reporter cells (human, UniProt P11362 22-822; Q86Z14 1-1044)
Test: cell-based or functional assay

human FGFR1c + KLB receptor complex on HEK293 iLite FGF21 reporter cells, sequence (P11362 22-822, chain 1 of 2): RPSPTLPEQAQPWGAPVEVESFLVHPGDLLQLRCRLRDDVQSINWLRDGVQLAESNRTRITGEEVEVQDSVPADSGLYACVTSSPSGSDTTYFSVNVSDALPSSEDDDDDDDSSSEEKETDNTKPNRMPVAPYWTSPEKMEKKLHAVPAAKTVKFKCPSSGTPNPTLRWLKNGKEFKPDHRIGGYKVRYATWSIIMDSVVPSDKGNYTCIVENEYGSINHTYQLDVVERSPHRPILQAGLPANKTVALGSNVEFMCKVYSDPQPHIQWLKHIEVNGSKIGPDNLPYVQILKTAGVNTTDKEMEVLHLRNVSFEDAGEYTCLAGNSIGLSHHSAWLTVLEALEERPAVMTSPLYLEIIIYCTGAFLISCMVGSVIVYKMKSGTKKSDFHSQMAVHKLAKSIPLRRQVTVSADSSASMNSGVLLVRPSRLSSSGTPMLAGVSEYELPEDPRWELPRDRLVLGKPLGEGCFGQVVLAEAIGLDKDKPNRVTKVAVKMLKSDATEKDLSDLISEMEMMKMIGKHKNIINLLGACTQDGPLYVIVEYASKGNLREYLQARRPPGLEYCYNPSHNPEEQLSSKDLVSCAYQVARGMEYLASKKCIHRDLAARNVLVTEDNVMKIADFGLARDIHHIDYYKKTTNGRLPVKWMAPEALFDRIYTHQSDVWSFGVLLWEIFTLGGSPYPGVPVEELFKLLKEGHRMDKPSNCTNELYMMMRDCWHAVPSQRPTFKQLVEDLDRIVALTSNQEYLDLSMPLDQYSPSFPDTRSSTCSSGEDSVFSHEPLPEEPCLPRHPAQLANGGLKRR
human FGFR1c + KLB receptor complex on HEK293 iLite FGF21 reporter cells, sequence (Q86Z14 whole entry, chain 2 of 2): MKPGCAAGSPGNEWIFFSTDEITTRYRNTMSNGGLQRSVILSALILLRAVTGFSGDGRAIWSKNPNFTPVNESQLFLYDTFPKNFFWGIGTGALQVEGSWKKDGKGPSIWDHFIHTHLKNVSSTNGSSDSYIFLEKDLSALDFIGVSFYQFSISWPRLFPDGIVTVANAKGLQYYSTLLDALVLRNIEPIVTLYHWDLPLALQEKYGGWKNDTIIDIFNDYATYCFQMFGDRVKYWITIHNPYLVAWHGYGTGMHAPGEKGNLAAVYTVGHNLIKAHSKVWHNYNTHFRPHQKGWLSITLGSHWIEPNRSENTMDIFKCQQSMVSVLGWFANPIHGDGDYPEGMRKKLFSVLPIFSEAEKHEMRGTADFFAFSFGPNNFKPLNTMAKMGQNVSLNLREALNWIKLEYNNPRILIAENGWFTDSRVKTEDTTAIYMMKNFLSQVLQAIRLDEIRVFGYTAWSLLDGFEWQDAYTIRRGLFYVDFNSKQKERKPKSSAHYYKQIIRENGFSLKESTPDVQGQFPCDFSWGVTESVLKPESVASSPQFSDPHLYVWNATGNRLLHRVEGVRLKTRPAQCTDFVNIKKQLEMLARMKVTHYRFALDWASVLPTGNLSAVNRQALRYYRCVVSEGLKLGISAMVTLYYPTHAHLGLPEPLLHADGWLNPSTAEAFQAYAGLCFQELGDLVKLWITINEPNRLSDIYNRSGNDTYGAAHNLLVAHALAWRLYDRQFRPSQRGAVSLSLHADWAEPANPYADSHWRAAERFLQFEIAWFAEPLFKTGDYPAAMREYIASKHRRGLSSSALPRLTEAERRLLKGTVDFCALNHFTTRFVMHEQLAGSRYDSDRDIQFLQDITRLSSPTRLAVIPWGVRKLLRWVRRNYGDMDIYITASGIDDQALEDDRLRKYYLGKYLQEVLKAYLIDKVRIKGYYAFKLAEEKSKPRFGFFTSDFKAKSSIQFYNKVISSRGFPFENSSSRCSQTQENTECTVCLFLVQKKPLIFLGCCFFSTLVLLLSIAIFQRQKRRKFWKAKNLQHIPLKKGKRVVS

EC50	Emax	Binder
0.03 nM	1100%	Ab0430 (antibody, human IgG1, lambda) heavy: not shown light: SYVLTQPPSVSVAPGQTARITCGGSNIGSESVHWYQQKPGQAPVLVVYEESDRPSGIPERFSGSNSGNTATLTISRVEAGDEADYYCQVWEGESDHVVFGGGTKLTVLGQPKANPTVTLFPPSSEELQANKATLVCLISDFYPGAVTVAWKADGSPVKAGVETTKPSKQSNNKYAASSYLSLTPEQWKSHRSYSCQVTHEGSTVEKTVAPTECS
0.05 nM	1510%	Ab0423 (antibody, IgG4, V domains shown) VH: QVTLKESGPVLVKPTETLTLTCTVSGFSLNNARVGVSWIRQPPGKALEWLAHIFSNDEKSYSTSLKSRLTISKDTSKSQVVLTMTNMDPVDTATYYCARSVVTGGYYYEGMDVWGQGTTVTVSS VL: SYVLTQPPSVSVAPGQTARITCGGSNIGSESVHWYQQKPGQAPVLVVYSSSDRPSGIPERFSGSNSGNTATLTISRVEAGDEADYYCQVWEGASDHVVFGGGTKLTVLG
0.07 nM	1390%	Ab0424 (antibody, IgG4, V domains shown) VH: QVTLKESGPVLVKPTETLTLTCTVSGFSLNNARVGVSWIRQPPGKALEWLAHIFSNDEKSYSTSLKSRLTISKDTSKSQVVLTMTNMDPVDTATYYCARSVVTGGYYYEGMDVWGQGTTVTVSS VL: SYVLTQPPSVSVAPGQTARITCGGSNIGSESVHWYQQKPGQAPVLVVYSSSDRPSGIPERFSGSNSGNTATLTISRVEAGDEADYYCQVWHGASDHVVFGGGTKLTVLG
0.02 nM	1520%	Ab0457 (antibody, IgG4, V domains shown) VH: QVTLKESGPVLVKPTETLTLTCTVSGFSLSNARVGVSWIRQPPGKALEWLAHIFSNDEKSYSTSLKSRLTISKDTSKSQVVLTMTNMDPVDTATYYCARSVVTGGYYYEGMDVWGQGTTVTVSS VL: SYVLTQPPSVSVAPGQTARITCGGSNIGSESVHWYQQKPGQAPVLVVYSASDRPSGIPERFSGSNSGNTATLTISRVEAGDEADYYCQVWEGESDHVVFGGGTKLTVLG
0.02 nM	1390%	Ab0461 (antibody, IgG4, V domains shown) VH: QVTLKESGPVLVKPTETLTLTCTVSGFSLSNARVGVSWIRQPPGKALEWLAHIFSNDEKSYSTSLKSRLTISKDTSKSQVVLTMTNMDPVDTATYYCARSVVTGGYYYEGMDVWGQGTTVTVSS VL: SYVLTQPPSVSVAPGQTARITCGGSNIGSESVHWYQQKPGQAPVLVVYEESDRPSGIPERFSGSNSGNTATLTISRVEAGDEADYYCQVWEGESDHVVFGGGTKLTVLG
0.07 nM	1080%	Ab0456 (antibody, IgG4, V domains shown) VH: QVTLKESGPVLVKPTETLTLTCTVSGFSLTYARVGVSWIRQPPGKALEWLAHIFSNDEKSYSTSLKSRLTISKDTSKSQVVLTMTNMDPVDTATYYCARSVVTGGYYYEGMDVWGQGTTVTVSS VL: SYVLTQPPSVSVAPGQTARITCGGSNIGSESVHWYQQKPGQAPVLVVYSESDRPSGIPERFSGSNSGNTATLTISRVEAGDEADYYCQVWEGESDHVVFGGGTKLTVLG
0.02 nM	910%	Ab0464 (antibody, IgG4, V domains shown) VH: QVTLKESGPVLVKPTETLTLTCTVSGFSLTYARVGVSWIRQPPGKALEWLAHIFSNDEKSYSTSLKSRLTISKDTSKSQVVLTMTNMDPVDTATYYCARSVVTGGYYYEGMDVWGQGTTVTVSS VL: SYVLTQPPSVSVAPGQTARITCGGSNIGSESVHWYQQKPGQAPVLVVYEESDRPSGIPERFSGSNSGNTATLTISRVEAGDEADYYCQVWEGESDHVVFGGGTKLTVLG
0.02 nM	1430%	Ab0458 (antibody, IgG4, V domains shown) VH: QVTLKESGPVLVKPTETLTLTCTVSGFSLTNARVGVSWIRQPPGKALEWLAHIFSNDEKSYSTSLKSRLTISKDTSKSQVVLTMTNMDPVDTATYYCARSVVTGGYYYEGMDVWGQGTTVTVSS VL: SYVLTQPPSVSVAPGQTARITCGGSNIGSESVHWYQQKPGQAPVLVVYSASDRPSGIPERFSGSNSGNTATLTISRVEAGDEADYYCQVWEGESDHVVFGGGTKLTVLG
0.03 nM	1340%	Ab0462 (antibody, IgG4, V domains shown) VH: QVTLKESGPVLVKPTETLTLTCTVSGFSLTNARVGVSWIRQPPGKALEWLAHIFSNDEKSYSTSLKSRLTISKDTSKSQVVLTMTNMDPVDTATYYCARSVVTGGYYYEGMDVWGQGTTVTVSS VL: SYVLTQPPSVSVAPGQTARITCGGSNIGSESVHWYQQKPGQAPVLVVYEESDRPSGIPERFSGSNSGNTATLTISRVEAGDEADYYCQVWEGESDHVVFGGGTKLTVLG
0.05 nM	1050%	Ab0460 (antibody, IgG4, V domains shown) VH: QVTLKESGPVLVKPTETLTLTCTVSGFSLTYARVGVSWIRQPPGKALEWLAHIFSNDEKSYSTSLKSRLTISKDTSKSQVVLTMTNMDPVDTATYYCARSVVTGGYYYEGMDVWGQGTTVTVSS VL: SYVLTQPPSVSVAPGQTARITCGGSNIGSESVHWYQQKPGQAPVLVVYSASDRPSGIPERFSGSNSGNTATLTISRVEAGDEADYYCQVWEGESDHVVFGGGTKLTVLG
0.04 nM	1110%	Ab0459 (antibody, IgG4, V domains shown) VH: QVTLKESGPVLVKPTETLTLTCTVSGFSLSYARVGVSWIRQPPGKALEWLAHIFSNDEKSYSTSLKSRLTISKDTSKSQVVLTMTNMDPVDTATYYCARSVVTGGYYYEGMDVWGQGTTVTVSS VL: SYVLTQPPSVSVAPGQTARITCGGSNIGSESVHWYQQKPGQAPVLVVYSASDRPSGIPERFSGSNSGNTATLTISRVEAGDEADYYCQVWEGESDHVVFGGGTKLTVLG
0.07 nM	1020%	Ab0455 (antibody, IgG4, V domains shown) VH: QVTLKESGPVLVKPTETLTLTCTVSGFSLSYARVGVSWIRQPPGKALEWLAHIFSNDEKSYSTSLKSRLTISKDTSKSQVVLTMTNMDPVDTATYYCARSVVTGGYYYEGMDVWGQGTTVTVSS VL: SYVLTQPPSVSVAPGQTARITCGGSNIGSESVHWYQQKPGQAPVLVVYSESDRPSGIPERFSGSNSGNTATLTISRVEAGDEADYYCQVWEGESDHVVFGGGTKLTVLG
0.03 nM	1390%	Ab0454 (antibody, IgG4, V domains shown) VH: QVTLKESGPVLVKPTETLTLTCTVSGFSLTNARVGVSWIRQPPGKALEWLAHIFSNDEKSYSTSLKSRLTISKDTSKSQVVLTMTNMDPVDTATYYCARSVVTGGYYYEGMDVWGQGTTVTVSS VL: SYVLTQPPSVSVAPGQTARITCGGSNIGSESVHWYQQKPGQAPVLVVYSESDRPSGIPERFSGSNSGNTATLTISRVEAGDEADYYCQVWEGESDHVVFGGGTKLTVLG
0.05 nM	951%	Ab0463 (antibody, IgG4, V domains shown) VH: QVTLKESGPVLVKPTETLTLTCTVSGFSLSYARVGVSWIRQPPGKALEWLAHIFSNDEKSYSTSLKSRLTISKDTSKSQVVLTMTNMDPVDTATYYCARSVVTGGYYYEGMDVWGQGTTVTVSS VL: SYVLTQPPSVSVAPGQTARITCGGSNIGSESVHWYQQKPGQAPVLVVYEESDRPSGIPERFSGSNSGNTATLTISRVEAGDEADYYCQVWEGESDHVVFGGGTKLTVLG
0.03 nM	1400%	Ab0453 (antibody, IgG4, V domains shown) VH: QVTLKESGPVLVKPTETLTLTCTVSGFSLSNARVGVSWIRQPPGKALEWLAHIFSNDEKSYSTSLKSRLTISKDTSKSQVVLTMTNMDPVDTATYYCARSVVTGGYYYEGMDVWGQGTTVTVSS VL: SYVLTQPPSVSVAPGQTARITCGGSNIGSESVHWYQQKPGQAPVLVVYSESDRPSGIPERFSGSNSGNTATLTISRVEAGDEADYYCQVWEGESDHVVFGGGTKLTVLG
